The target in this experiment is T1, human TSH receptor stably expressed on Chinese Hamster Ovary (CHO) cells (CHO-hTSHR clone JP09 and clone JP26) (human, UniProt P16473 21-764).
T1 construct: whole, on cells; also called hTSH receptor; CHO-JPO9
The experiment can be described thus: told in words; bioactivity assay on CHO-JPO9 cells expressing the TSH receptor.

B1: mutant TSH heterodimer of wild type human common α-subunit and mutant human TSH-β subunit βE6N (ligand)
alpha: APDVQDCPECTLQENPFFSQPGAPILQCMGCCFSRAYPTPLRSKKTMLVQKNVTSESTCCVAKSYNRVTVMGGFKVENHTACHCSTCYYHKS
beta: FCIPTNYTMHIERRECAYCLTINTTICAGYCMTRDINGKLFLPKYALSQDVCTYRDFIYRTVEIPGCPLHVAPYFSYPVALSCKCGKCNTDYSDCIHEAIKTNYCTKPQKSYLVGFSV
modifications: Both subunits are N-glycosylated (secreted from CHO-K1 cells). They form a noncovalent heterodimer. The letters carry neither feature.
notes: Transiently expressed in CHO-K1 cells
As to B1, the binding result is “binds”.

These data come from US20040265972A1 (published 2004).
